Source: publication PMC3483155, “Inhibition of Pre-mRNA Splicing by a Synthetic Blom7α-Interacting Small RNA”

Experiments:
[1] = biological target: Blom7-KH (Homo sapiens, UniProt Q7Z7F0 1-317); test: EMSA; 1 mM Mg2+; 20 nM RNA, 0-50 nM protein; EMSA: PBS pH 7.5, 1 mM MgCl2, 1 mM DTT, 5% glycerol, 20 min at room temperature, gel at 4°C; SPR: 1x PBS, 1 mM Mg acetate, pH 7.0 (or HEPES + 3 mM Mg acetate); details: protein: recombinant; tags: His6 (C-terminal as named, pET30A); label: 3' biotin; single strand
[2] = biological target: Blom7α wt (Homo sapiens, UniProt Q7Z7F0 1-614); test: as above

B1: AK48 (ssRNA)
RNA: UGCCCCAAUCCUACACGACCCAAGGCCCCC
B1: binds [1]; binds [2].
